These results are taken from publication PMC9986279, “Biochemical and genetic examination of two aminotransferases from the hyperthermophilic archaeon Thermococcus kodakarensis” (Frontiers in Microbiology, 2023).

For data set [1], the target named is T1, TK0548 protein (Thermococcus kodakarensis, UniProt Q5JF51).
T1 construct: full length, no tag (own stop codon in primer), pET21a(+), E. coli BL21-CodonPlus(DE3)-RIL; monomer 43,608 Da, dimer (85 kDa)
T1 sequence (Q5JF51 1-389): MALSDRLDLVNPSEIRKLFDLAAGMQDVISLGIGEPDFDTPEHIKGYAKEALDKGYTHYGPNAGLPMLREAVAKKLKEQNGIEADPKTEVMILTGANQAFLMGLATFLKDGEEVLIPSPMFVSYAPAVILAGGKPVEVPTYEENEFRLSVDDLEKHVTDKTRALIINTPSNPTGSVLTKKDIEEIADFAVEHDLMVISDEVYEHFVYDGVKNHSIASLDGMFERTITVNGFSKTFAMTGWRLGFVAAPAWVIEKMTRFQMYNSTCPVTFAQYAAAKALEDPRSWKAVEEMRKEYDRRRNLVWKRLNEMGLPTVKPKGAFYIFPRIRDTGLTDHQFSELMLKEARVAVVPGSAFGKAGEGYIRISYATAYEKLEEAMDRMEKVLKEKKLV
The data set can be described thus: aminotransferase activity with and without added PLP. It counts as biochemical. To be noted: 20 μM PLP, 50 mM HEPES pH 7.4, 80°C.

Data set [2] has as its target T2, TK2268 protein (Thermococcus kodakarensis, UniProt Q5JHU0).
T2 construct: full length, C-terminal His6-tag kept, expressed in T. kodakarensis KPD2; monomer 45,116 Da; dimer (98 kDa) that may assemble to octamer (327 kDa)
Described as above. It counts as biochemical. The note with it: 20 μM PLP, 50 mM HEPES pH 7.4, 80°C.

Substrate in data set [3]: N[C@@H](Cc1ccc(O)cc1)C(=O)O
Briefly: aminotransferase assay, Glu formed quantified by HPLC after o-phthalaldehyde derivatization. To be noted: 10 mM 2-oxoglutarate, 20 μM PLP, 50 mM HEPES pH 7.4, 80°C. It counts as biochemical, Thermococcus kodakarensis. The source says: (§1) aminotransferase assay, Glu formed quantified by HPLC after o-phthalaldehyde derivatization on TK2268 protein

Substrate in data set [4]: O=C(O)CCC(=O)C(=O)O
The description is as above. It counts as biochemical, Thermococcus kodakarensis. The note with it: 50 mM Leu, 20 μM PLP, 50 mM HEPES pH 7.4, 80°C.
Source text: as §1

Substrate in data set [5]: N[C@@H](CCC(=O)O)C(=O)O
Briefly: aminotransferase assay, Ala formed quantified by HPLC after o-phthalaldehyde derivatization. To be noted: 10 mM pyruvate, 20 μM PLP, 50 mM HEPES pH 7.4, 80°C. The format is biochemical, Thermococcus kodakarensis. The source says: (§2) aminotransferase assay, Ala formed quantified by HPLC after o-phthalaldehyde derivatization on TK2268 protein

Substrate in data set [6]: CC(=O)C(=O)O
The description is as above. It counts as biochemical, Thermococcus kodakarensis. To be noted: 50 mM Leu, 20 μM PLP, 50 mM HEPES pH 7.4, 80°C.
Source text: as §2

Substrate in data set [7]: CC(C)C[C@H](N)C(=O)O
The description is as above. The format is biochemical, Thermococcus kodakarensis. To be noted: 10 mM pyruvate, 20 μM PLP, 50 mM HEPES pH 7.4, 80°C.
Source text: as §2

Substrate in data set [8]: N[C@@H](CC(=O)O)C(=O)O
Briefly: purified protein. To be noted: 10 mM pyruvate, 20 μM PLP, 50 mM HEPES pH 7.4, 80°C.

Substrate in data set [9]: CC(=O)C(=O)O
The data set can be described thus: aminotransferase assay, Ala formed quantified by HPLC after o-phthalaldehyde derivatization. It counts as biochemical, Thermococcus kodakarensis. To be noted: 10 mM Phe, 20 μM PLP, 50 mM HEPES pH 7.4, 80°C. The source says:
aminotransferase assay, Ala formed quantified by HPLC after o-phthalaldehyde derivatization on TK0548 protein

Substrate in data set [10]: N[C@@H](Cc1ccc(O)cc1)C(=O)O
The data set can be described thus: aminotransferase assay, Glu formed quantified by HPLC after o-phthalaldehyde derivatization. It counts as biochemical, Thermococcus kodakarensis. The note with it: 10 mM 2-oxoglutarate, 20 μM PLP, 50 mM HEPES pH 7.4, 80°C. The source says:
(§3) aminotransferase assay, Glu formed quantified by HPLC after o-phthalaldehyde derivatization on TK0548 protein
The source holds these as a separate data set.

Substrate in data set [11]: N[C@@H](Cc1c[nH]c2ccccc12)C(=O)O
The description is as above. The format is biochemical, Thermococcus kodakarensis. To be noted: 10 mM 2-oxoglutarate, 20 μM PLP, 50 mM HEPES pH 7.4, 80°C.
Source text: as §3

Substrate in data set [12]: O=C(O)CCC(=O)C(=O)O
The data set is described as above. It counts as biochemical, Thermococcus kodakarensis. The note with it: 10 mM Phe, 20 μM PLP, 50 mM HEPES pH 7.4, 80°C.
Source text: as §3

Substrate in data set [13]: N[C@@H](Cc1ccccc1)C(=O)O
The data set is described as above. The format is biochemical, Thermococcus kodakarensis. The note with it: 10 mM 2-oxoglutarate, 20 μM PLP, 50 mM HEPES pH 7.4, 80°C.
Source text: as §3

Substrate in data set [14]: N[C@@H](Cc1c[nH]cn1)C(=O)O
The description is as above. The format is biochemical, Thermococcus kodakarensis. To be noted: 10 mM 2-oxoglutarate, 20 μM PLP, 50 mM HEPES pH 7.4, 80°C.
Source text: as §3

Substrate in data set [15]: CSCC[C@H](N)C(=O)O
The data set is described as above. To be noted: 10 mM 2-oxoglutarate, 20 μM PLP, 50 mM HEPES pH 7.4, 80°C. The format is biochemical, Thermococcus kodakarensis.
Source text: as §3

Usually Km stands for the substrate concentration at which the rate is half of its maximum. For orientation: Vmax means the rate approached at saturating substrate. A word on the kcat: it is the number of substrate molecules converted per active site and unit of time at saturation. In general, kcat/Km refers to the turnover number divided by the Michaelis constant.

Take `Cc1ncc(COP(=O)(O)O)c(C=O)c1O` [pyridoxal 5′-phosphate]: the “aminotransferase activity with and without added PLP” value in data set [1] was “suggesting that the TK0548 and TK2268 proteins are PLP-dependent aminotransferases”; in [2], “suggesting that the TK0548 and TK2268 proteins are PLP-dependent aminotransferases”.

B1: TK2268 protein (Thermococcus kodakarensis KOD1) (protein)
chain: MRYKKRKYFMAGRINILQRSKIRELFEKASKMENVISLGIGEPDFDTPEVIKEAAKRAIDEGYTHYTPNAGIPEFREAIAEYYKEFYNVDVDMNNIIVTAGAYEATYLAFESILEQGDDVIIPDPAFVCYVEDAKIAEAGIIRIPLREENKFRIDPDELLEAITKRTRMIVMNYPNNPTGAIMKKDVAKAIADIAQDYNIYILSDEPYEHFLYEGARHHPMIKYAPDNTILANSFSKTFAMTGWRLGFAIAPEQVIRDMIKLHAYVIGNVTSFIQIAGITALRDKRSWEAVERMRQVYDERRKLVLKYLNDMPHITPFRPKGAFYIWAKIDPELDMTSEDFAEWLLENAGVVVIPGTAFGRQGEGWIRISYATEKEKLIEAMERMKEALSKL
notes: full length, C-terminal His6-tag kept, expressed in T. kodakarensis KPD2; monomer 45,116 Da; dimer (98 kDa) that may assemble to octamer (327 kDa)
In the case of B1, the Km in [3] is 1450 ± 260 µM; in data set [4], 190 ± 30 µM; in [5], 2170 ± 270 µM; in data set [6] it was 2720 ± 350 µM; in [7], 36300 ± 4300 µM; in [8] it was 2140 ± 220 µM. Also, the maximal velocity (Vmax) in data set [3] was determined as 0.34 µmol/min/mg; in data set [4] it was 4.45 µmol/min/mg; in data set [5], 7.42 µmol/min/mg; in data set [6], 3.76 µmol/min/mg; in data set [7] it was 4.68 µmol/min/mg; in data set [8], 5.42 µmol/min/mg. The kcat in [3] was found to be 0.26 ± 0.02 s⁻¹; in data set [4] it was 3.35 ± 0.15 s⁻¹; in [5] it was 5.57 ± 0.23 s⁻¹; in data set [6], 2.83 ± 0.16 s⁻¹; in [7], 3.52 ± 0.23 s⁻¹; in data set [8], 4.07 s⁻¹. Besides, the kcat/Km came to 180 M⁻¹ s⁻¹ in data set [3]; 17600 M⁻¹ s⁻¹ in data set [4]; 2570 M⁻¹ s⁻¹ in data set [5]; 1040 M⁻¹ s⁻¹ in [6]; 100 M⁻¹ s⁻¹ in [7]; 1900 M⁻¹ s⁻¹ in data set [8].

B2: TK0548 protein (Thermococcus kodakarensis KOD1) (protein)
chain: T1 sequence (Q5JF51 1-389)
notes: full length, no tag (own stop codon in primer), pET21a(+), E. coli BL21-CodonPlus(DE3)-RIL; monomer 43,608 Da, dimer (85 kDa)
B2: the Michaelis-Menten constant (Km) in data set [9] was 48000 ± 5000 µM; in data set [10] it was 1400 ± 200 µM; in data set [11], 1100 ± 100 µM; in [12] it was 1500 ± 200 µM; in [13] it was 670 ± 60 µM; in [14], 4400 ± 400 µM. For the same molecule, the Michaelis constant (Km) in [15] was 64000 ± 9000 µM. The maximal velocity (Vmax) in data set [9] turned out to be 137 µmol/min/mg; in data set [10] it was 419 µmol/min/mg; in [11] it was 359 µmol/min/mg; in [12], 334 µmol/min/mg; in data set [13] it was 483 µmol/min/mg; in [14] it was 179 µmol/min/mg. Moreover, the Vmax in [15] was 169 µmol/min/mg. Besides, the kcat in data set [9] was 100 ± 7 s⁻¹; in data set [10] it was 305 ± 19 s⁻¹; in [11], 261 ± 10 s⁻¹; in [12] it was 243 ± 10 s⁻¹; in [13] it was 351 ± 10 s⁻¹; in [14] it was 130 ± 6 s⁻¹. In [15], the kcat came out at 123 ± 14 s⁻¹. Moreover, the catalytic efficiency (kcat/Km) is 2070 M⁻¹ s⁻¹ in data set [9]; 218000 M⁻¹ s⁻¹ in [10]; 237000 M⁻¹ s⁻¹ in [11]; 162000 M⁻¹ s⁻¹ in data set [12]; 524000 M⁻¹ s⁻¹ in data set [13]; 29600 M⁻¹ s⁻¹ in [14]. Further, the kcat/Km in data set [15] is 1920 M⁻¹ s⁻¹.
